# Measured values reported in patent US20220211812A1 (Bristol-Myers Squibb, published 2022).
# B1: AQ1-GSPGSP-Glu^γ-C14-COOH (ligand)
# chain 1: XLYSALANKCCHVGCTKRSLARFC
# chain 2: ASWMEEVIKLCGRELVRAQIAICGMSTWS
# peptide: GSPGSPE
# modifications: not fully specified; Glu^γ bonded by amide to fatty acid -C14-COOH; oxime-linked to pAcF of the A chain; pAcF (para-acetyl-L-phenylalanine) at position 1, oxime-linked to PK enhancer GSPGSP-Glu^γ-C14-COOH
# B2: AQ1-EEEEPEEEEPEEEEPEEGGG-C14-CH3 (ligand)
# chain 1: XLYSALANKCCHVGCTKRSLARFC
# chain 2: ASWMEEVIKLCGRELVRAQIAICGMSTWS
# peptide: EEEEPEEEEPEEEEPEEGGG
# modifications: linked to fatty acid -C14-CH3; oxime-linked to pAcF of the A chain; pAcF (para-acetyl-L-phenylalanine) at position 1, oxime-linked to PK enhancer EEEEPEEEEPEEEEPEEGGG-C14-CH3
# B3: AQ1-Glu-C13-CH3 (ligand)
# chain 1: XLYSALANKCCHVGCTKRSLARFC
# chain 2: ASWMEEVIKLCGRELVRAQIAICGMSTWS
# modifications: not fully specified; pAcF (para-acetyl-L-phenylalanine) at position 1, oxime-linked to PK enhancer Glu-C13-CH3
# B4: AQ1-KKGGS-Glu^γ -C15-COOH (ligand)
# chain 1: XLYSALANKCCHVGCTKRSLARFC
# chain 2: ASWMEEVIKLCGRELVRAQIAICGMSTWS
# peptide: KKGGSE
# modifications: not fully specified; Glu^γ bonded by amide to fatty acid -C15-COOH; oxime-linked to pAcF of the A chain; pAcF (para-acetyl-L-phenylalanine) at position 1, oxime-linked to PK enhancer KKGGS-Glu^γ-C15-COOH
# B5: AQ1-EEEEEE-Glu^γ-C14-CH3 (ligand)
# chain 1: XLYSALANKCCHVGCTKRSLARFC
# chain 2: ASWMEEVIKLCGRELVRAQIAICGMSTWS
# peptide: EEEEEEE
# modifications: not fully specified; Glu^γ bonded by amide to fatty acid -C14-CH3; oxime-linked to pAcF of the A chain; pAcF (para-acetyl-L-phenylalanine) at position 1, oxime-linked to PK enhancer EEEEEE-Glu^γ-C14-CH3
# B6: AQ1-KGGEEKKKEKEKEPKGGEEKKKEKEK-Glu^γ-C15-COOH (ligand)
# chain 1: XLYSALANKCCHVGCTKRSLARFC
# chain 2: ASWMEEVIKLCGRELVRAQIAICGMSTWS
# peptide: KGGEEKKKEKEKEPKGGEEKKKEKEKE
# modifications: not fully specified; Glu^γ bonded by amide to fatty acid -C15-COOH; oxime-linked to pAcF of the A chain; pAcF (para-acetyl-L-phenylalanine) at position 1, oxime-linked to PK enhancer KGGEEKKKEKEKEPKGGEEKKKEKEK-Glu^γ-C15-COOH
# B7: AQ1-PEG36-Glu-C13-CH3 (ligand)
# chain 1: XLYSALANKCCHVGCTKRSLARFC
# chain 2: ASWMEEVIKLCGRELVRAQIAICGMSTWS
# modifications: not fully specified; pAcF (para-acetyl-L-phenylalanine) at position 1, oxime-linked to PK enhancer PEG36-Glu-C13-CH3
# B8: AQ1-KK-Glu^γ-C15-COOH (ligand)
# chain 1: XLYSALANKCCHVGCTKRSLARFC
# chain 2: ASWMEEVIKLCGRELVRAQIAICGMSTWS
# peptide: KKE
# modifications: not fully specified; Glu^γ bonded by amide to fatty acid -C15-COOH; oxime-linked to pAcF of the A chain; pAcF (para-acetyl-L-phenylalanine) at position 1, oxime-linked to PK enhancer …
# B9: AQ1-KGP-Glu^γ-C14-COOH (ligand)
# chain 1: XLYSALANKCCHVGCTKRSLARFC
# chain 2: ASWMEEVIKLCGRELVRAQIAICGMSTWS
# peptide: KGPE
# modifications: not fully specified; Glu^γ bonded by amide to fatty acid -C14-COOH; oxime-linked to pAcF of the A chain; pAcF (para-acetyl-L-phenylalanine) at position 1, oxime-linked to PK enhancer KGP-Glu^γ-C14-COOH
# B10: AQ1-GGGGP-Glu^γ-C14-COOH (ligand)
# chain 1: XLYSALANKCCHVGCTKRSLARFC
# chain 2: ASWMEEVIKLCGRELVRAQIAICGMSTWS
# peptide: GGGGPE
# modifications: not fully specified; Glu^γ bonded by amide to fatty acid -C14-COOH; oxime-linked to pAcF of the A chain; pAcF (para-acetyl-L-phenylalanine) at position 1, oxime-linked to PK enhancer GGGGP-Glu^γ-C14-COOH
# B11: AQ1-KGGGSE-Glu^γ-C14-COOH (ligand)
# chain 1: XLYSALANKCCHVGCTKRSLARFC
# chain 2: ASWMEEVIKLCGRELVRAQIAICGMSTWS
# peptide: KGGGSEE
# modifications: not fully specified; Glu^γ bonded by amide to fatty acid -C14-COOH; oxime-linked to pAcF of the A chain; pAcF (para-acetyl-L-phenylalanine) at position 1, oxime-linked to PK enhancer KGGGSE-Glu^γ-C14-COOH
# B12: AQ1-KK-Glu^γ-C14-COOH (ligand)
# chain 1: XLYSALANKCCHVGCTKRSLARFC
# chain 2: ASWMEEVIKLCGRELVRAQIAICGMSTWS
# peptide: KKE
# modifications: not fully specified; Glu^γ bonded by amide to fatty acid -C14-COOH; oxime-linked to pAcF of the A chain; pAcF (para-acetyl-L-phenylalanine) at position 1, oxime-linked to PK enhancer …
# B13: AQ1-20kDa PEG (ligand)
# chain 1: XLYSALANKCCHVGCTKRSLARFC
# chain 2: ASWMEEVIKLCGRELVRAQIAICGMSTWS
# modifications: pAcF (para-acetyl-L-phenylalanine) at position 1, oxime-linked to 20 kDa PEG
# B14: AQ1-KGGGS-Glu^γ-C14-COOH (ligand)
# chain 1: XLYSALANKCCHVGCTKRSLARFC
# chain 2: ASWMEEVIKLCGRELVRAQIAICGMSTWS
# peptide: KGGGSE
# modifications: not fully specified; Glu^γ bonded by amide to fatty acid -C14-COOH; oxime-linked to pAcF of the A chain; pAcF (para-acetyl-L-phenylalanine) at position 1, oxime-linked to PK enhancer KGGGS-Glu^γ-C14-COOH
# Target: T1, human RXFP1 receptor (human, UniProt Q9HBX9 1-757)
# T1 sequence (looked up): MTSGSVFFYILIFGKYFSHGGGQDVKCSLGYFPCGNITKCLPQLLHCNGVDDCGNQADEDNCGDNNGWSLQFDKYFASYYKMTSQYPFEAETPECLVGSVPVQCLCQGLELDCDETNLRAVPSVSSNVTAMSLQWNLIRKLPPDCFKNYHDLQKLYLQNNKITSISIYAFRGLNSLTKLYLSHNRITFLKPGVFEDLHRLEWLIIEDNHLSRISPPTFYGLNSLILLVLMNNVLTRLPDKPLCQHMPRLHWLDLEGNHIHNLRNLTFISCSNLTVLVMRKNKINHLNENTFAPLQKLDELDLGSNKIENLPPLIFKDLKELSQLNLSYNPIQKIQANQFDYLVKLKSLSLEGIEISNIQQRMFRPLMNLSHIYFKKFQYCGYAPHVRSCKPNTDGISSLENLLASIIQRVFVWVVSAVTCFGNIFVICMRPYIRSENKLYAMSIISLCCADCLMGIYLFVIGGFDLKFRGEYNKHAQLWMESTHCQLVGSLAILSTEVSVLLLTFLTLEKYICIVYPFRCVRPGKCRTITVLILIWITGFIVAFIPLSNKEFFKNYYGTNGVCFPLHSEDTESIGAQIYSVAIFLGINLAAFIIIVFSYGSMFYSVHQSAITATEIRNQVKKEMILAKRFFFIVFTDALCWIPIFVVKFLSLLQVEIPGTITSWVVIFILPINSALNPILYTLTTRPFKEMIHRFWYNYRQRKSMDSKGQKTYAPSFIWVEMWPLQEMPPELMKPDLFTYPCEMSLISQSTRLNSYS
# Test: cell-based or functional assay
row,Binder,"hRXFP1/CHO-K1 cAMP EC50 (nM, avg) [nM]"
1,B1,0.29
2,B2,0.16
3,B3,0.95
4,B4,1.36
5,B5,0.38
6,B6,1.81
7,B7,0.15
8,B8,0.4
9,B9,0.27
10,B10,0.39
11,B11,0.37
12,B12,0.34
13,B13,3.22
14,B14,0.34
